In PMC3419730, “NRFL-1, the C. elegans NHERF Orthologue, Interacts with Amino Acid Transporter 6 (AAT-6) for Age-Dependent Maintenance of AAT-6 on the Membrane” (PLoS ONE, 2012):

Experiments:
[1] = target: T1, 3×FLAG-NRFL-1 with PDZ I mutated (G26A/Y27A) (C. elegans, UniProt G5EDM4 1-467, G26A | Y27A); test: pull-down; GST pull-down: 2 µg GST fusion protein and 5 µg recombinant 3×FLAG-NRFL-1, overnight at 4°C in 50 mM Tris pH 7.4, 150 mM NaCl, 5 mM EDTA, 0.1% NP-40; blot with anti-FLAG; conditions: both partners purified
T1 construct: not shown: GST, N-terminal, cleaved; 3×FLAG, N-terminal, kept
T1 sequence (looked up): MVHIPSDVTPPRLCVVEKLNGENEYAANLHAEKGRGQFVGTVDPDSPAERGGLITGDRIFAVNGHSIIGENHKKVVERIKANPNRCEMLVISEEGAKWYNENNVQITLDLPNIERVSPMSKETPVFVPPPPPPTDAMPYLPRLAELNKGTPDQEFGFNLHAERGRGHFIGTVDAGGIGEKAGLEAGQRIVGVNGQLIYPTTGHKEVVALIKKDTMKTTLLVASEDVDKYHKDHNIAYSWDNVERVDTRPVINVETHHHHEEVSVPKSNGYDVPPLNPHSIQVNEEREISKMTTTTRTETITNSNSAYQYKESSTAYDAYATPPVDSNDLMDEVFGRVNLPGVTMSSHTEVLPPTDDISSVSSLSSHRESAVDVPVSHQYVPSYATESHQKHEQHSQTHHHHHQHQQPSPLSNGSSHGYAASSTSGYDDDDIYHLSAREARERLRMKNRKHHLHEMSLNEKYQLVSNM

[2] = target: T2, 3×FLAG-NRFL-1 (wild type) (C. elegans, UniProt G5EDM4 1-467); test: as above; conditions: both partners purified
T2 construct: NRFL-1 (C01F6.6a), C. elegans, full-length wild type; cDNA first ligated into p3×FLAG-myc-CMV-24, then the 3×FLAG-NRFL-1 fragment moved into pGEX-6P-1; also called recombinant NRFL-1 wild-type; not shown: GST, N-terminal, cleaved; 3×FLAG, N-terminal, kept
T2 sequence (looked up): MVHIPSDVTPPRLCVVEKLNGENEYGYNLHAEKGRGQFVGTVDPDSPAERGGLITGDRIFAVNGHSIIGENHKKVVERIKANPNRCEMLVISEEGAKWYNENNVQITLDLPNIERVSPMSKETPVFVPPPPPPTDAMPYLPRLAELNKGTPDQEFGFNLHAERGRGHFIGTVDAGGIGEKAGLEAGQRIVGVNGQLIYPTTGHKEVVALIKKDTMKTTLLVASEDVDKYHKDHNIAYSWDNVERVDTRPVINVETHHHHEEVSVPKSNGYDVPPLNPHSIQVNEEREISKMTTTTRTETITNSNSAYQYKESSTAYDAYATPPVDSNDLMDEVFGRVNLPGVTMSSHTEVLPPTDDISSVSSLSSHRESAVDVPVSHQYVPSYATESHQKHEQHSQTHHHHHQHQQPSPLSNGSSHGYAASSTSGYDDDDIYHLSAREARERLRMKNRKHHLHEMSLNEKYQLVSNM

binding result [1]: binds | binding result [2]: binds
B1: GST fusion of AAT-6 C-terminus tail corresponding to residues 487–523 (domain or fragment, C. elegans, UniProt Q22397 487-523, looked up)
chain: GDEEMKNAIGGAESESEKVPAYKISPTGNGQFKCTRM
notes: also called GST-AAT-6; source: E. coli BL21 (DE3), purified (Glutathione Sepharose 4B); not shown: GST, N-terminal, kept
